Measured values taken from article PMC10388305, “Synthesis and Evaluation of a Monomethyl Auristatin E—Integrin αvβ6 Binding Peptide–Drug Conjugate for Tumor Targeted Drug Delivery” (Journal of Medicinal Chemistry, 2023).
Ends that are not written are not given here.

Experiments:
BxPC-3 cells = test: In vitro cell blocking assay, BxPC-3; type: cell-based; settings: 1 h, 37 °C, n = 3
Procedure: Cell binding and internalization assay. Binding and internalization were determined as previously described. In brief, bovine serum albumin (BSA, 0.5% w/v in PBS) was used to pretreat the assay tubes to prevent non-specific binding. Aliquots of [64Cu]2 or [ 64Cu]PDC-1 (≤1 μL, 7.4-18.5 KBq in 50 μL PBS, pH = 7.4) were added to a cell suspension (3.75 × 10 6 cells in 50 μL serum free medium), incubated for 1 h at 37 °C, and gently agitated every 5 minutes (n = 3/cell line/compound). The cells were pelleted by centrifugation at 200×g for 3 min and the supernatant collected. The cell pellet was washed with 0.5 mL serum free medium and the wash medium combined with the original supernatant. […] The fraction of bound radioactivity was determined with a γ-counter (by measuring cell pellet and combined supernatants). To determine the fraction of internalized radioactivity, the cells were re-pelleted, and re-suspended in acidic wash buffer (0.2 M sodium acetate, 0.5 M sodium chloride, pH = 2.5, 300 μL, 4 °C, 5 min) to release surface bound activity, followed by a wash with PBS (300 μL). The internalized fraction was determined with a γ-counter (cell pellet vs. radioactivity released into supernatant). A Wizard 1470 or Wizard 2 2470 automatic γ-counter (Perkin-Elmer, Waltham, MA) was used to measure radioactivity samples. […]
Figure S3. […] Data are expressed as mean ± SD. […]

[1] = test system: glioblastoma U87MG xenograft mouse model; settings: cited from earlier work
Description: (§1) Wang et al. described a similar radiolabeling approach with copper-64 to imag ...

[2] = test system: MDA-MB-435 breast cancer xenograft tumor model; settings: copper-64 labeled; 4 h; cited from earlier work
Description: as §1

Compound	Concentration of non-radioactive DOTA-PDC-1 required to block [64Cu]PDC-1 binding (BxPC-3 cells) [nM]	Liver accumulation ([1]; 20 h, model not stated) [% ID/g]	Tumor uptake ([1]; copper-64 labeled, 4 h) [% ID/g]	Tumor accumulation [2] [% ID/g]
CC[C@H](C)[C@@H]([C@@H](CC(=O)N1CCC[C@H]1[C@H](OC)[C@@H](C)C(=O)N[C@H](C)[C@@H](O)c1ccccc1)OC)N(C)C(=O)[C@@H](NC(=O)[C@H](C(C)C)N(C)C(=O)OCc1ccc(NC(=O)[C@H](CCCNC(N)=O)NC(=O)[C@@H](NC(=O)CCOCCOCCNC(=O)CCN2C(=O)CC(SC[C@H](NC(=O)CN3CCN(CC(=O)O)CCN(CC(=O)O)CCN(CC(=O)O)CC3)C(=O)NCCOCCOCCOCCOCCOCCOCCOCCOCCOCCOCCOCCOCCOCCOCCOCCOCCOCCOCCOCCOCCOCCOCCOCCOCCOCCOCCOCCOCCC(=O)N[C@@H](CC(N)=O)C(=O)N[C@@H](C)C(=O)N[C@H](C(=O)N3CCC[C@H]3C(=O)N[C@@H](CC(N)=O)C(=O)N[C@@H](CC(C)C)C(=O)N[C@@H](CCCNC(=N)N)C(=O)NCC(=O)N[C@@H](CC(=O)O)C(=O)N[C@@H](CC(C)C)C(=O)N[C@@H](CCC(N)=O)C(=O)N[C@H](C(=O)N[C@@H](CC(C)C)C(=O)N[C@@H](C)C(=O)N[C@@H](CCC(N)=O)C(=O)N[C@@H](CCCNC(=N)N)C(=O)N[C@H](C(=O)N[C@@H](C)C(=O)N[C@@H](CCCNC(=N)N)C(=O)N[C@H](C(=O)NCCOCCOCCOCCOCCOCCOCCOCCOCCOCCOCCOCCOCCOCCOCCOCCOCCOCCOCCOCCOCCOCCOCCOCCOCCOCCOCCOCCOCCC(N)=O)[C@@H](C)O)C(C)C)C(C)C)C(C)C)C2=O)C(C)C)cc1)C(C)C (stereo partly shown) [DOTA-PDC-1]	80 to 160			
CDCRGDCFC (also: bicyclic or more (positions not given here)) [TNF-PDC]		16.22 ± 1.46	8.11 ± 0.88	3.94 ± 0.48
